Measured values from PMC9692514, “Identification of a Novel p53 Modulator Endowed with Antitumoural and Antibacterial Activity through a Scaffold Repurposing Approach” (Pharmaceuticals, 2022).

Target: T1, recombinant human His-tagged p53 protein (residues 1–312) (human, UniProt P04637 1-312)
T1 construct: p53, human, residues 1-312; source: final dialysis with 0.2 mM ZnCl2
Assay: NMR antagonist-induced dissociation assay (AIDA), 1D proton spectra; Trp NHε side-chain signals of the MDM2–p53 complex; 0.1 mM proteins, 25 °C, 20 mM Tris-HCl, 150 mM KCl, pH 7.4, 5 mM β-mercaptoethanol, 0.02% NaN3; also after RM37 (0.2 mM)
Settings: both partners purified

T1 sequence (P04637 1-312): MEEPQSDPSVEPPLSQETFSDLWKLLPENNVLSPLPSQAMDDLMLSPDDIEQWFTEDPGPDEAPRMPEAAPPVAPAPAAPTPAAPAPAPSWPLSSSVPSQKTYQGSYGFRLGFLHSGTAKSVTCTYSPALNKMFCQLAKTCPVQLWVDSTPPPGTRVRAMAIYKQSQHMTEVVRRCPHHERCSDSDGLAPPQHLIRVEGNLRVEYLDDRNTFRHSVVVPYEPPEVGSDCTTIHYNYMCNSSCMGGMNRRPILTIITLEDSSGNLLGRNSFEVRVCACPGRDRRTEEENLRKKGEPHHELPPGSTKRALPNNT

binding result: binds
B1: recombinant human His-tagged N-terminal region of MDM2 (residues 1–118) (domain or fragment, UniProt Q00987 1-118, looked up)
chain: MCNTNMSVPTDGAVTTSQIPASEQETLVRPKPLLLKLLKSVGAQKDTYTMKEVLFYLGQYIMTKRLYDEKQQHIVYCSNDLLGDLFGVPSFSVKEHRKIYTMIYRNLVVVNQQESSDS
notes: MDM2 (HDM2), human, N-terminal region, residues 1-118; Cloned in a derivative of the vector pET-46Ek/LIC (Novagen); that vector probably adds the His tag at the N-terminus (surmised); No cleavage of the tag is told; also called HDM2
